This note sets out measurements from PMC11602973, “Structural basis of nucleic acid recognition by the N-terminal cold shock domain of the plant glycine-rich protein AtGRP2”.

As usually defined, the Kd is the constant that tells how readily two partners part at equilibrium.

Positions count from the first letter of the chain named.

Data set [1] has as its target T1, AtGRP2-CSD1-90 WT (Arabidopsis thaliana, UniProt Q41188 1-90).
T1 sequence: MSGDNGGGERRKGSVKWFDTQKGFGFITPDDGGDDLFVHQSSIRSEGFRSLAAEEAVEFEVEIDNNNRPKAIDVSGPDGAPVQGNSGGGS
As to the kind of experiment: NMR HSQC titration; up to 2x molar excess; 20 mM sodium phosphate pH 6.5, 50 mM NaCl, 25 C (fluorescence); NMR titrations in the same buffer plus 250 uM PMSF, 3 mM NaN3, 5% D2O, 298 K. The settings on record: protein: recombinant; tags: N-terminal Trx(6 aa)-His6-TEV tag, cleaved.

In data set [2] the target is T1, AtGRP2-CSD1-90 WT. As to the kind of experiment: fluorescence anisotropy; 20 mM sodium phosphate pH 6.5, 50 mM NaCl, 25 C (fluorescence); NMR titrations in the same buffer plus 250 uM PMSF, 3 mM NaN3, 5% D2O, 298 K. The settings on record: protein: recombinant; tags: N-terminal Trx(6 aa)-His6-TEV tag, cleaved; label: 5'-rhodamine. (In fluorescence polarisation assays a small probe gives low polarisation when free and higher when bound to something large.)

The next data set has as its target T2, AtGRP2-CSD1-90 F48A (Arabidopsis thaliana, UniProt Q41188 1-90, F48A).
T2 sequence: T1 sequence with F48A
Described as above. The settings on record: protein: recombinant; tags: N-terminal Trx(6 aa)-His6-TEV tag, cleaved; label: 5'-rhodamine.

The target in another data set is T3, AtGRP2-CSD1-90 R49A (Arabidopsis thaliana, UniProt Q41188 1-90, R49A).
T3 sequence: T1 sequence with R49A
Described as above. The settings on record: protein: recombinant; tags: N-terminal Trx(6 aa)-His6-TEV tag, cleaved; label: 5'-rhodamine.

The target in a further data set is T4, AtGRP2-CSD1-90 H39A (Arabidopsis thaliana, UniProt Q41188 1-90, H39A).
T4 sequence: T1 sequence with H39A
The description is as above. The conditions noted are these: protein: recombinant; tags: N-terminal Trx(6 aa)-His6-TEV tag, cleaved; label: 5'-rhodamine.

A further data set deals with T5, AtGRP2-CSD1-90 F37A (Arabidopsis thaliana, UniProt Q41188 1-90, F37A).
T5 sequence: T1 sequence with F37A
As to the kind of experiment: fluorescence anisotropy; no saturation; text: binding abolished; 20 mM sodium phosphate pH 6.5, 50 mM NaCl, 25 C (fluorescence); NMR titrations in the same buffer plus 250 uM PMSF, 3 mM NaN3, 5% D2O, 298 K. The conditions noted are these: protein: recombinant; tags: N-terminal Trx(6 aa)-His6-TEV tag, cleaved; label: 5'-rhodamine.

For another data set, the target named is T6, AtGRP2-CSD1-90 F26A (Arabidopsis thaliana, UniProt Q41188 1-90, F26A).
T6 sequence: T1 sequence with F26A
The description is as above. The conditions noted are these: protein: recombinant; tags: N-terminal Trx(6 aa)-His6-TEV tag, cleaved; label: 5'-rhodamine.

For the next data set, the target named is T7, AtGRP2-CSD1-90 W17A (Arabidopsis thaliana, UniProt Q41188 1-90, W17A).
T7 sequence: T1 sequence with W17A
The description is as above. The settings on record: protein: recombinant; tags: N-terminal Trx(6 aa)-His6-TEV tag, cleaved; label: 5'-rhodamine.

For the next data set, the target named is T8, AtGRP2-CSD1-79 (Arabidopsis thaliana, UniProt Q41188 1-79).
T8 sequence: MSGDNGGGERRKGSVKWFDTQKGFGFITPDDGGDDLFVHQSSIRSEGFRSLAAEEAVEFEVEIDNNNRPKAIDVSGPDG
As to the kind of experiment: intrinsic Trp fluorescence quenching; 20 mM sodium phosphate pH 6.5, 50 mM NaCl, 25 C (fluorescence); NMR titrations in the same buffer plus 250 uM PMSF, 3 mM NaN3, 5% D2O, 298 K. The conditions noted are these: protein: recombinant; tags: N-terminal Trx(6 aa)-His6-TEV tag, cleaved.

Consider AAAAAAA (ssDNA) [A7], for which the binding result with AtGRP2-CSD1-90 WT [1] is reported as “no binding”.
The same measure, in the same setting: to GGGGGGG (ssDNA) [G7] belongs “no binding”.
TTTTTTT (ssDNA) [Rho-T7]: the Kd in the data set with AtGRP2-CSD1-90 WT [2] was 17.2 ± 2.4 µM; with AtGRP2-CSD1-90 F48A, 38.6 ± 6.3 µM; with AtGRP2-CSD1-90 R49A, 45.7 ± 6.8 µM; in the data set with AtGRP2-CSD1-90 H39A, 210 ± 36.8 µM. In addition, the binding result with AtGRP2-CSD1-90 F37A, with AtGRP2-CSD1-90 F26A and in the data set with AtGRP2-CSD1-90 W17A was “no binding” each time.
For UUUUUUU (ssRNA) [Rho-U7], the Kd in the data set with AtGRP2-CSD1-90 WT [2] amounted to 76.8 ± 9.7 µM.
Turning to TTTTTTT (ssDNA) [T7], the Kd with AtGRP2-CSD1-79 was 22 ± 2.4 µM.
